Patent US20240352438A1, “MEANS AND METHODS FOR DETOXIFYING OCHRATOXIN A” (DSM Austria GmbH, priority 2021, published 2024)
Substitutions are numbered along the chain they refer to.

B1: 241 (protein)
chain: MTTRTRILTAFLSLLAANACAADAAPAAPHTVVLRAARMFDGASGKLVDHPQLTIVGNKIVRIAQGDKAEVPAGAEVVDLGDATLLPGFIDAHVHLSGQSSDNWYGDFFDNMMRFPAEQALYGAYYARITLEAGFTSVRDVGSTDWVALGLRNAIDAGKVPGPRMLVSNYAVGSTGGHADQDPIPPHKLPLAGPLQGVCNGPEECRAAVRYQIKYGANVIKFMPSGGVLSLSDPVDAPELSQDEMNAVIGESHAWGRKVAAHAHGDKAAKMAVAAGVDSIEHGSFIEDDTLRAMKAKNVYLVPTISAIAHVEEKIGTFPPVIAEKGRAAAAELRQTFRHAVQIGVPIALGTDAGVGAHGSNAREFRYMVENGLTPAQALLAGTANAARLLGTFDRVGTLEAGKLADVVAVPGNPIADITVTERPLFVMKDGVVVRRDAVR
modifications: exemplary polypeptide
B2: 272 (protein)
chain: B1 chain with Q119E, E332H
modifications: exemplary polypeptide
B3: 285 (protein)
chain: B1 chain with V235L, E332H
modifications: exemplary polypeptide
B4: 260 (protein)
chain: B1 chain with H310E, E313A, E332H
modifications: exemplary polypeptide
B5: 261 (protein)
chain: B1 chain with G98S, E332H
modifications: exemplary polypeptide
B6: 286 (protein)
chain: B1 chain with L231E, V321T, E332H
modifications: exemplary polypeptide
B7: 282 (protein)
chain: B1 chain with V235A, E332H
modifications: exemplary polypeptide
B8: 242 (protein)
chain: B1 chain with E332R
modifications: exemplary polypeptide
B9: 259 (protein)
chain: B1 chain with H310D, E313A, E332H
modifications: exemplary polypeptide
B10: 245 (protein)
chain: B1 chain with E332H, H339K
modifications: exemplary polypeptide
B11: 262 (protein)
chain: B1 chain with G98V, E332H
modifications: exemplary polypeptide
B12: 274 (protein)
chain: B1 chain with Q119K, E332H
modifications: exemplary polypeptide
B13: 268 (protein)
chain: B1 chain with M112F, E332H
modifications: exemplary polypeptide
B14: 256 (protein)
chain: B1 chain with H187N, K188R, E332H
modifications: exemplary polypeptide
B15: 253 (protein)
chain: B1 chain with E332H, N361Q
modifications: exemplary polypeptide
B16: 280 (protein)
chain: B1 chain with V198T, E332H
modifications: exemplary polypeptide
B17: 275 (protein)
chain: B1 chain with Q119M, E332H
modifications: exemplary polypeptide
B18: 248 (protein)
chain: B1 chain with E332H, A353S
modifications: exemplary polypeptide
B19: 244 (protein)
chain: B1 chain with E332H, H339E
modifications: exemplary polypeptide
B20: 284 (protein)
chain: B1 chain with V235F, E332H
modifications: exemplary polypeptide
B21: 273 (protein)
chain: B1 chain with Q119H, E332H
modifications: exemplary polypeptide
B22: 281 (protein)
chain: B1 chain with L231F, E332H
modifications: exemplary polypeptide
B23: 247 (protein)
chain: B1 chain with E332H, H339S
modifications: exemplary polypeptide
B24: 246 (protein)
chain: B1 chain with E332H, H339N
modifications: exemplary polypeptide
B25: 243 (protein)
chain: B1 chain with E332S
modifications: exemplary polypeptide

Assay: Enzymatic activity comparison: activity remaining after 65° C. for 10 min at pH 6.0, relative to SEQ ID NO: 1
Format: physicochemical
Conditions: not given
Procedure: To compare the temperature behavior and thermostability of selected enzymes to one another, enzyme was incubated at 65° C. for 10 min at pH 6.0. The enzymatic activity remaining after incubation was compared to the remaining activity of the enzyme of SEQ ID NO: 1 after incubation, the latter being set to 100%, see Table 16.
For B1, the “Enzymatic activity remaining after incubation, compared to SEQ ID NO: 1 (set to 100%)” value was 73%.
In the case of B2, the “Enzymatic activity remaining after incubation, compared to SEQ ID NO: 1 (set to 100%)” value is reported as 41%.
With B3 the “Enzymatic activity remaining after incubation, compared to SEQ ID NO: 1 (set to 100%)” value was 63%.
With B4 the “Enzymatic activity remaining after incubation, compared to SEQ ID NO: 1 (set to 100%)” value was 27%.
For B5, the “Enzymatic activity remaining after incubation, compared to SEQ ID NO: 1 (set to 100%)” value was 60%.
With B6 the “Enzymatic activity remaining after incubation, compared to SEQ ID NO: 1 (set to 100%)” value was 33%.
With B7 the “Enzymatic activity remaining after incubation, compared to SEQ ID NO: 1 (set to 100%)” value was 28%.
For B8, the “Enzymatic activity remaining after incubation, compared to SEQ ID NO: 1 (set to 100%)” value was 11%.
For B9, the “Enzymatic activity remaining after incubation, compared to SEQ ID NO: 1 (set to 100%)” value was 41%.
With B10 the “Enzymatic activity remaining after incubation, compared to SEQ ID NO: 1 (set to 100%)” value was 37%.
With B11 the “Enzymatic activity remaining after incubation, compared to SEQ ID NO: 1 (set to 100%)” value was 40%.
In the case of B12, the “Enzymatic activity remaining after incubation, compared to SEQ ID NO: 1 (set to 100%)” value is reported as 32%.
For B13, the “Enzymatic activity remaining after incubation, compared to SEQ ID NO: 1 (set to 100%)” value was 28%.
For B14, the “Enzymatic activity remaining after incubation, compared to SEQ ID NO: 1 (set to 100%)” value was 36%.
With B15 the “Enzymatic activity remaining after incubation, compared to SEQ ID NO: 1 (set to 100%)” value was 22%.
For B16, the “Enzymatic activity remaining after incubation, compared to SEQ ID NO: 1 (set to 100%)” value was 31%.
In the case of B17, the “Enzymatic activity remaining after incubation, compared to SEQ ID NO: 1 (set to 100%)” value is reported as 25%.
For B18, the “Enzymatic activity remaining after incubation, compared to SEQ ID NO: 1 (set to 100%)” value was 38%.
In the case of B19, the “Enzymatic activity remaining after incubation, compared to SEQ ID NO: 1 (set to 100%)” value is reported as 33%.
In the case of B20, the “Enzymatic activity remaining after incubation, compared to SEQ ID NO: 1 (set to 100%)” value is reported as 13%.
For B21, the “Enzymatic activity remaining after incubation, compared to SEQ ID NO: 1 (set to 100%)” value was 34%.
For B22, the “Enzymatic activity remaining after incubation, compared to SEQ ID NO: 1 (set to 100%)” value was 13%.
For B23, the “Enzymatic activity remaining after incubation, compared to SEQ ID NO: 1 (set to 100%)” value was 53%.
With B24 the “Enzymatic activity remaining after incubation, compared to SEQ ID NO: 1 (set to 100%)” value was 27%.
In the case of B25, the “Enzymatic activity remaining after incubation, compared to SEQ ID NO: 1 (set to 100%)” value is reported as 41%.

Assay: OTA detoxification activity assay (specific activity, fluorescence reduction ex/em 390/450 nm)
Format: biochemical
Conditions: pH 6.0; SEQ ID NO: 1 = 100%
Summary of the method: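 Recombinant enzyme preparation with 200 ng/mL OTA in 100 mM sodium phosphate, at pH 6.0 and pH 7.5, 37° C. Degradation followed as the fall in fluorescence at ex/em 390/450 nm. Specific activity taken from the initial linear slope; one unit degrades 1 μmol OTA per min at a starting OTA of […].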
In the case of B1, the “Specific OTA detoxification activities in % compared to the enzyme of SEQ ID NO: 1, pH 6.0” value is reported as 18%.
For B2, the “Specific OTA detoxification activities in % compared to the enzyme of SEQ ID NO: 1, pH 6.0” value was 121%.
With B3 the “Specific OTA detoxification activities in % compared to the enzyme of SEQ ID NO: 1, pH 6.0” value was 28%.
With B4 the “Specific OTA detoxification activities in % compared to the enzyme of SEQ ID NO: 1, pH 6.0” value was 83%.
In the case of B5, the “Specific OTA detoxification activities in % compared to the enzyme of SEQ ID NO: 1, pH 6.0” value is reported as 78%.
For B6, the “Specific OTA detoxification activities in % compared to the enzyme of SEQ ID NO: 1, pH 6.0” value was 39%.
With B7 the “Specific OTA detoxification activities in % compared to the enzyme of SEQ ID NO: 1, pH 6.0” value was 77%.
With B8 the “Specific OTA detoxification activities in % compared to the enzyme of SEQ ID NO: 1, pH 6.0” value was 41%.
With B9 the “Specific OTA detoxification activities in % compared to the enzyme of SEQ ID NO: 1, pH 6.0” value was 56%.
With B10 the “Specific OTA detoxification activities in % compared to the enzyme of SEQ ID NO: 1, pH 6.0” value was 62%.
For B11, the “Specific OTA detoxification activities in % compared to the enzyme of SEQ ID NO: 1, pH 6.0” value was 116%.
With B12 the “Specific OTA detoxification activities in % compared to the enzyme of SEQ ID NO: 1, pH 6.0” value was 100%.
With B13 the “Specific OTA detoxification activities in % compared to the enzyme of SEQ ID NO: 1, pH 6.0” value was 25%.
With B14 the “Specific OTA detoxification activities in % compared to the enzyme of SEQ ID NO: 1, pH 6.0” value was 116%.
For B15, the “Specific OTA detoxification activities in % compared to the enzyme of SEQ ID NO: 1, pH 6.0” value was 93%.
For B16, the “Specific OTA detoxification activities in % compared to the enzyme of SEQ ID NO: 1, pH 6.0” value was 70%.
In the case of B17, the “Specific OTA detoxification activities in % compared to the enzyme of SEQ ID NO: 1, pH 6.0” value is reported as 71%.
For B18, the “Specific OTA detoxification activities in % compared to the enzyme of SEQ ID NO: 1, pH 6.0” value was 131%.
In the case of B19, the “Specific OTA detoxification activities in % compared to the enzyme of SEQ ID NO: 1, pH 6.0” value is reported as 127%.
For B20, the “Specific OTA detoxification activities in % compared to the enzyme of SEQ ID NO: 1, pH 6.0” value was 48%.
In the case of B21, the “Specific OTA detoxification activities in % compared to the enzyme of SEQ ID NO: 1, pH 6.0” value is reported as 134%.
In the case of B22, the “Specific OTA detoxification activities in % compared to the enzyme of SEQ ID NO: 1, pH 6.0” value is reported as 90%.
For B23, the “Specific OTA detoxification activities in % compared to the enzyme of SEQ ID NO: 1, pH 6.0” value was 80%.
With B24 the “Specific OTA detoxification activities in % compared to the enzyme of SEQ ID NO: 1, pH 6.0” value was 113%.
In the case of B25, the “Specific OTA detoxification activities in % compared to the enzyme of SEQ ID NO: 1, pH 6.0” value is reported as 37%.

Same assay, conditions: pH 7.5; SEQ ID NO: 1 = 100%
With B1 the “Specific OTA detoxification activities in % compared to the enzyme of SEQ ID NO: 1, pH 7.5” value was 55%.
With B2 the “Specific OTA detoxification activities in % compared to the enzyme of SEQ ID NO: 1, pH 7.5” value was 86%.
For B3, the “Specific OTA detoxification activities in % compared to the enzyme of SEQ ID NO: 1, pH 7.5” value was 21%.
In the case of B4, the “Specific OTA detoxification activities in % compared to the enzyme of SEQ ID NO: 1, pH 7.5” value is reported as 81%.
In the case of B5, the “Specific OTA detoxification activities in % compared to the enzyme of SEQ ID NO: 1, pH 7.5” value is reported as 95%.
For B6, the “Specific OTA detoxification activities in % compared to the enzyme of SEQ ID NO: 1, pH 7.5” value was 17%.
In the case of B7, the “Specific OTA detoxification activities in % compared to the enzyme of SEQ ID NO: 1, pH 7.5” value is reported as 41%.
For B8, the “Specific OTA detoxification activities in % compared to the enzyme of SEQ ID NO: 1, pH 7.5” value was 54%.
For B9, the “Specific OTA detoxification activities in % compared to the enzyme of SEQ ID NO: 1, pH 7.5” value was 54%.
For B10, the “Specific OTA detoxification activities in % compared to the enzyme of SEQ ID NO: 1, pH 7.5” value was 59%.
In the case of B11, the “Specific OTA detoxification activities in % compared to the enzyme of SEQ ID NO: 1, pH 7.5” value is reported as 106%.
For B12, the “Specific OTA detoxification activities in % compared to the enzyme of SEQ ID NO: 1, pH 7.5” value was 100%.
In the case of B13, the “Specific OTA detoxification activities in % compared to the enzyme of SEQ ID NO: 1, pH 7.5” value is reported as 39%.
With B14 the “Specific OTA detoxification activities in % compared to the enzyme of SEQ ID NO: 1, pH 7.5” value was 101%.
With B15 the “Specific OTA detoxification activities in % compared to the enzyme of SEQ ID NO: 1, pH 7.5” value was 87%.
In the case of B16, the “Specific OTA detoxification activities in % compared to the enzyme of SEQ ID NO: 1, pH 7.5” value is reported as 50%.
For B17, the “Specific OTA detoxification activities in % compared to the enzyme of SEQ ID NO: 1, pH 7.5” value was 85%.
For B18, the “Specific OTA detoxification activities in % compared to the enzyme of SEQ ID NO: 1, pH 7.5” value was 91%.
With B19 the “Specific OTA detoxification activities in % compared to the enzyme of SEQ ID NO: 1, pH 7.5” value was 93%.
In the case of B20, the “Specific OTA detoxification activities in % compared to the enzyme of SEQ ID NO: 1, pH 7.5” value is reported as 23%.
For B21, the “Specific OTA detoxification activities in % compared to the enzyme of SEQ ID NO: 1, pH 7.5” value was 76%.
In the case of B22, the “Specific OTA detoxification activities in % compared to the enzyme of SEQ ID NO: 1, pH 7.5” value is reported as 50%.
For B23, the “Specific OTA detoxification activities in % compared to the enzyme of SEQ ID NO: 1, pH 7.5” value was 100%.
With B24 the “Specific OTA detoxification activities in % compared to the enzyme of SEQ ID NO: 1, pH 7.5” value was 89%.
For B25, the “Specific OTA detoxification activities in % compared to the enzyme of SEQ ID NO: 1, pH 7.5” value was 77%.
